The results in this text go back to patent US20240156935A1 (VIB VZW, published 2024).

For experiment [1], the target named is T1, recombinant Q586B2 protein (Tb927.6.4140), produced in E. coli WK6.
T1 chain: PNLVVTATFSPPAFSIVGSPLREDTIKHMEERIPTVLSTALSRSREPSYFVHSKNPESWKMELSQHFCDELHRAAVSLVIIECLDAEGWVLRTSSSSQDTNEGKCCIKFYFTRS
The experiment in a line: ELISA. A general note: In an ELISA, binding on a coated surface is turned into a signal by an enzyme label.

Experiment [2] has as its target T2, native Q586B2 (Tb927.6.4140) of Trypanosoma brucei brucei parasites (Trypanosoma brucei brucei).
T2 construct: Native protein; also called native protein
T2 chain: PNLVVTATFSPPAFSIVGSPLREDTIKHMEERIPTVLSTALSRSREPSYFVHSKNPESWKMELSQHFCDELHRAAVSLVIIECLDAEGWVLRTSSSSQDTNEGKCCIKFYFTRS
Put plainly: flow cytometry on purified T. brucei brucei parasites, HA-tagged Nb, Alexa-488 anti-HA IgG. (In flow cytometry, cells or beads pass a laser one at a time.)
Description: FIG. 4A) Representative flow cytometric profile of purified, fixed and permeabilized T. brucei brucei parasites plotted in an SSC-A versus FSC-A plot and subsequently gating on single cells (FSC-H versus FSC-A plot). 10⁶ parasites in presence or absence of 5 μg of HA-tagged Nb was used per condition.

B1: Nb32 (VHH)
VHH: QVQLQESGGGLVQPGGSLRLSCAASGFTFSAYAMSWVRQAPGKGLEWVSTIDSGGGSTYYADSVKGRFTISRDNAKKTLYLHMNSLKPEDTAVYYCAKRGYSDYARHVWGQGTQVTVSS
notes: Llama nanobody purified by IMAC and SEC; It was HA-tagged in flow cytometry; also called anti-Q586B2 Nb
For the molecule B1, the Kd in experiment [1] is 46.6 nM. Besides, the binding result in experiment [2] was “binds”.

B2: Nb36 (VHH)
VHH: QVQLQESGGGLVQPGGSLRLSCAASGFAFSFYWMNWVRQAPGKGLEWVSAINSGGGSTYYADSVKGRFTISRDNAKNTLYLQMNSLKPEDTAVYYCAKGIVQRGEYYGMDYWGKGTQVTVSS
In the case of B2, the dissociation constant Kd in experiment [1] turned out to be 11.3 nM.

B3: Nb39 (VHH)
VHH: QVQLQESGGGLVQPGGSLRLSCTASGSIFSGYAMGWYRQAPGKQRELVAGITSGGSTIYAGSVKGRFTISRDNAKNTVYLQMNSLKPEDTAVYYCKNGTYYSARDYWGQGTQVTVSS
In the case of B3, in experiment [1], the Kd came to 49.9 nM.

B4: Nb58 (VHH)
VHH: QVQLQESGGGLVQPGGSLRLSCAASGRSISSIYAMGWYRQAPGKQRELVARLTSGGSSNYADSVKGRFTITRDNAQNTVYLQMNSLKPEDTAVYYCNAEPSRWWLDDDYWGQGTQVTVSS
notes: as for B1
Regarding B4, in experiment [1], the dissociation constant Kd came out at 36.7 nM. The binding result in experiment [2] is “binds”.

B5: Nb27 (VHH)
VHH: QVQLQESGGGLVQPGGSLRLSCTTSRSILSIYAMGWYRQAPGKQRELVAVITSGGSTYYADSVKGRFTISRDNAKNTLYLQMNSLKPEDTALYYCARGGYGTSPQPSWGQGTQVTVSS
Turning to B5, the Kd in experiment [1] is 52 nM.

B6: Nb41 (VHH)
VHH: QVQLQESGGGLVQAGGSLRLSCAASGRTFSSYAMGWFRQAPGKEREFIALISWIGGSTAYADSVKGRFTISRDNAKNTLYLQMNSLKPEDTAVYYCATDRIGRHRGPGTQVTVSS
notes: as for B1
For the molecule B6, the equilibrium dissociation constant (Kd) in experiment [1] turned out to be 14.5 nM. Also, in experiment [2], the binding result was “binds”.

B7: Nb34 (VHH)
VHH: QVQLQESGGGLVQPGGSLRLSCAASGFTFSNSPMNWVRQAPGKGLEWVSAINSGGGSTYYADSVKGRFTISRDNAKNTLYLQMNSLKPEDTAVYYCAKGGRTYYSGSYYSWGMDYWGKGTQVTVSS
Consider B7, for which the Kd in experiment [1] was determined as 36.7 nM.

B8: Nb53 (VHH)
VHH: QVQLQESGGGSVQAGGSLRLSCSASGYTYSSHCTAWFRQAPGKEREALAAINSRSGTTYYADSVKGRFTISQDNTKNTAYLQMNSLKPEDTATYFCAALSFGCTGPLASLGQGTQVTVSS
On to B8, for which the Kd in experiment [1] was 45.5 nM.

One may read the Kd as the free concentration of one partner at which half of the binding sites on the other are occupied at equilibrium, for simple one-to-one binding.
